Reference: article PMC11347170, “Staphylococcal exoribonuclease YhaM destabilizes ribosomes by targeting the mRNA of a hibernation factor”
Several values for one entry are separate records, joined by “and”; a condition that tells them apart may be missing. Equal values may be shown once.

Key:
[1] = target: His6-YhaM^WT, recombinant wild-type S. aureus 3'-5' exoribonuclease YhaM (Staphylococcus aureus USA300 JE2); experiment: SEC; 60 uM YhaM on HiPrep 16/60 Sephacryl S-100 HR, buffer B (40 mM HEPES pH 7.5, 0.5 M KCl, 10% glycerol); size by gel filtration standard
[2] = target: His6-YhaM^WT, recombinant wild-type S. aureus 3'-5' exoribonuclease YhaM (Staphylococcus aureus USA300 JE2); experiment: mass photometry; TwoMP mass photometer, 30 nM protein, 50 mM Na-Tricine pH 8.0, 100 mM KCl without metal or with 1 mM MnSO4, MgSO4 or CoSO4
[3] = target: YhaM^WT expressed in the S. aureus ΔyhaM mutant from a plasmid under its native promoter (Staphylococcus aureus USA300 JE2); experiment: cross-linking; in vivo, S. aureus ΔyhaM cells carrying pYhaM^WT (OD600 0.8), 1 mM glutaraldehyde for 1-2 h at room temperature, Western blot with anti-YhaM

stoichiometry N [1]	percent of particles in a hexameric state with Mn(II) [2] [%]	stoichiometry N [2]	Substance	stoichiometry N [3]
6	80	2 and 6	His6-YhaM^WT, recombinant wild-type S. aureus 3'-5' exoribonuclease YhaM (enzyme)	
			YhaM^WT expressed in the S. aureus ΔyhaM mutant from a plasmid under its native promoter (enzyme)	6 and 2 and 4
